Source: patent publication US20260209386A1 (MYTHIC THERAPEUTICS, published 2026)
Numbering of substitutions follows the chain as printed.

T1: Human PTK7 Protein, His Tag, Acro Biosystems (human, UniProt Q13308 31-704)
T1 construct: Bought recombinant protein; also called CCK4; not shown: His tag
T1 sequence: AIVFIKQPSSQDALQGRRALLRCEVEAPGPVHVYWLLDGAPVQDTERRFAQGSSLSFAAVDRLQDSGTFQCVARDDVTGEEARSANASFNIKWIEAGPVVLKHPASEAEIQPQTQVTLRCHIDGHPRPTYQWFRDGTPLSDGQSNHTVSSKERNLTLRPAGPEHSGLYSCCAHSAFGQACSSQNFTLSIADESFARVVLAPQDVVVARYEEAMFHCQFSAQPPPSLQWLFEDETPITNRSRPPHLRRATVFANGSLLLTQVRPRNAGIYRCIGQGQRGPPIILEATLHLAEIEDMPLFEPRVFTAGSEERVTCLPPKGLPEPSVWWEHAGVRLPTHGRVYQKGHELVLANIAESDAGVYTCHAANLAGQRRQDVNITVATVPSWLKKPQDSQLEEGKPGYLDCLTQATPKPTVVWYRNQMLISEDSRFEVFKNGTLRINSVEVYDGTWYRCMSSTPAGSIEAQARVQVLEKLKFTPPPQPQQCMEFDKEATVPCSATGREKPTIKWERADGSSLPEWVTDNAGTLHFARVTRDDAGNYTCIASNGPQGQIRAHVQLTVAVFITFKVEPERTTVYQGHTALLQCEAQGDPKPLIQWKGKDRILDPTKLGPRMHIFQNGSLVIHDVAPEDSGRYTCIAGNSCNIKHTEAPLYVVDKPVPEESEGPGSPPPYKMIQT

T2: Human PTK7 Protein, His Tag, Acro Biosystems (human, UniProt Q13308 31-704)
T2 construct: Bought protein; also called CCK4; not shown: His tag
T2 sequence: T1 sequence

B1: MYT11286 (antibody, V domains shown)
VH: EVQLVESGGGLVQPGGSLRLSCTASGIDLSRYSMGWVRQAPGKGLEWVGIISYGGSTYYASWAKGRFTISRDTSKNTVYLQMNSLRAEDTAVYFCARVGYPHYSGYGYAFDAFDPWGQGTLVTVSS
VL: EIVMTQSPSTLSASVGDRVIITCQSSKSVYNDNWLSWYQQKPGKAPKLLIYGASTLASGVPSRFSGSGSGAEFTLTISSLQPDDFATYYCAGGYSSSSDNGFGQGTKLTVL
notes: MYT9792 variant, His at VH 102 (H3 07)
B2: MYT11313 (antibody, V domains shown)
VH: B1 VH with H102G
VL: B1 VL with N33H
notes: MYT9792 variant, His at VL 33 (L1 10)
B3: MYT11318 (antibody, V domains shown)
VH: B1 VH with H102G
VL: B1 VL with A53H
notes: MYT9792 variant, His at VL 53 (L2 02)
B4: MYT11288 (antibody, V domains shown)
VH: B1 VH with H102G, S104H
VL: B1 VL
notes: MYT9792 variant, His at VH 104 (H3 09)
B5: MYT11312 (antibody, V domains shown)
VH: B1 VH with H102G
VL: B1 VL with D32H
notes: MYT9792 variant, His at VL 32 (L1 09)
B6: MYT11329 (antibody, V domains shown)
VH: B1 VH with H102G
VL: B1 VL with S96H
notes: MYT9792 variant, His at VL 96 (L3 06)
B7: MYT11290 (antibody, V domains shown)
VH: B1 VH with H102G, Y106H
VL: B1 VL
B8: MYT11314 (antibody, V domains shown)
VH: B1 VH with H102G
VL: B1 VL with W34H
notes: MYT9792 variant, His at VL 34 (L1 11)
B9: MYT11317 (antibody, V domains shown)
VH: B1 VH with H102G
VL: B1 VL with G52H
notes: MYT9792 variant, His at VL 52 (L2 01)
B10: MYT11308 (antibody, V domains shown)
VH: B1 VH with H102G
VL: B1 VL with S28H
notes: MYT9792 variant, His at VL 28 (L1 05)
B11: MYT11323 (antibody, V domains shown)
VH: B1 VH with H102G
VL: B1 VL with S58H
notes: MYT9792 variant, His at VL 58 (L2 07)
B12: MYT11306 (antibody, V domains shown)
VH: B1 VH with H102G
VL: B1 VL with S26H
notes: MYT9792 variant, His at VL 26 (L1 03)
B13: MYT11338 (antibody, V domains shown)
VH: B1 VH with H102G
VL: B1 VL with N100A
notes: MYT9792 variant, Ala at VL 100 (L3 10)
B14: MYT11301 (antibody, V domains shown)
VH: B1 VH with D28A, H102G
VL: B1 VL
notes: MYT9792 variant, Ala at VH 28 (H1 03)
B15: MYT11300 (antibody, V domains shown)
VH: B1 VH with F94Y, H102G
VL: B1 VL
B16: MYT11299 (antibody, V domains shown)
VH: B1 VH with H102G, P115H
VL: B1 VL
B17: MYT11336 (antibody, V domains shown)
VH: B1 VH with H102G
VL: B1 VL with D32A
notes: MYT9792 variant, Ala at VL 32 (L1 09)
B18: MYT11304 (antibody, V domains shown)
VH: B1 VH with H102G
VL: B1 VL with Q24H
notes: MYT9792 variant, His at VL 24 (L1 01)
B19: MYT11298 (antibody, V domains shown)
VH: B1 VH with H102G, D114H
VL: B1 VL
B20: MYT11311 (antibody, V domains shown)
VH: B1 VH with H102G
VL: B1 VL with N31H
notes: MYT9792 variant, His at VL 31 (L1 08)
B21: MYT11320 (antibody, V domains shown)
VH: B1 VH with H102G
VL: B1 VL with T55H
notes: MYT9792 variant, His at VL 55 (L2 04)
B22: MYT11334 (antibody, V domains shown)
VH: B1 VH with H102G
VL: B1 VL with G101H
notes: MYT9792 variant, His at VL 101 (L3 11)
B23: MYT11319 (antibody, V domains shown)
VH: B1 VH with H102G
VL: B1 VL with S54H
notes: MYT9792 variant, His at VL 54 (L2 03)
B24: MYT11181 (antibody, V domains shown)
VH: EVQLVESGGGLVQPGGSLRLSCTASGHDLSSYVMGWVRQAPGKGLEWVGYIYGGGGTYYATWARGRFTISRDTSKNTVYLQMNSLRAEDTAVYFCARAAADFYFNLWGQGTLVTVSS
VL: EIVMTQSPSTLSASVGDRVIITCQASQSISSYLAWYQQKPGKAPKLLIYDISDLASGVPSRFSGSGSGAEFTLTISSLQPDDFATYYCQSYYWISNSGAAFGQGTKLTVL
notes: HC variant of MYT9460, sub at HCV pos 27 (H1 02)
B25: MYT11186 (antibody, V domains shown)
VH: B24 VH with H27I, Y32H
VL: B24 VL
notes: HC variant of MYT9460, sub at HCV pos 32 (H1 07)
B26: MYT11201 (antibody, V domains shown)
VH: B24 VH with H27I, T61H
VL: B24 VL
notes: HC variant of MYT9460, sub at HCV pos 61 (H2 12)
B27: MYT11187 (antibody, V domains shown)
VH: B24 VH with H27I, V33H
VL: B24 VL
notes: HC variant of MYT9460, sub at HCV pos 33 (H1 08)
B28: MYT11183 (antibody, V domains shown)
VH: B24 VH with H27I, L29H
VL: B24 VL
notes: HC variant of MYT9460, sub at HCV pos 29 (H1 04)
B29: MYT11202 (antibody, V domains shown)
VH: B24 VH with H27I, W62H
VL: B24 VL
notes: HC variant of MYT9460, sub at HCV pos 62 (H2 13)
B30: MYT11185 (antibody, V domains shown)
VH: B24 VH with H27I, S31H
VL: B24 VL
notes: HC variant of MYT9460, sub at HCV pos 31 (H1 06)
B31: MYT11198 (antibody, V domains shown)
VH: B24 VH with H27I, Y58H
VL: B24 VL
notes: HC variant of MYT9460, sub at HCV pos 58 (H2 09)
B32: MYT11206 (antibody, V domains shown)
VH: B24 VH with H27I, A96H
VL: B24 VL
notes: HC variant of MYT9460, sub at HCV pos 96 (H3 01)
B33: MYT11200 (antibody, V domains shown)
VH: B24 VH with H27I, A60H
VL: B24 VL
notes: HC variant of MYT9460, sub at HCV pos 60 (H2 11)
B34: MYT11188 (antibody, V domains shown)
VH: B24 VH with H27I, M34H
VL: B24 VL
notes: HC variant of MYT9460, sub at HCV pos 34 (H1 09)
B35: MYT11199 (antibody, V domains shown)
VH: B24 VH with H27I, Y59H
VL: B24 VL
notes: HC variant of MYT9460, sub at HCV pos 59 (H2 10)
B36: MYT11205 (antibody, V domains shown)
VH: B24 VH with H27I, G65H
VL: B24 VL
notes: HC variant of MYT9460, sub at HCV pos 65 (H2 16)
B37: MYT11208 (antibody, V domains shown)
VH: B24 VH with H27I, A98H
VL: B24 VL
notes: HC variant of MYT9460, sub at HCV pos 98 (H3 03)
B38: MYT11203 (antibody, V domains shown)
VH: B24 VH with H27I, A63H
VL: B24 VL
notes: HC variant of MYT9460, sub at HCV pos 63 (H2 14)
B39: MYT11207 (antibody, V domains shown)
VH: B24 VH with H27I, R97H
VL: B24 VL
notes: HC variant of MYT9460, sub at HCV pos 97 (H3 02)

The binders below were run against T1, Human PTK7 Protein, His Tag, Acro … (assay: BLI, anti-human Fc capture, 50 nM PTK7; 2 = substantially similar binding relative to parent).

Row | binding result | Binder
1 | binds | B1
2 | binds | B2
3 | binds | B3
4 | binds | B4
5 | binds | B5
6 | binds | B6
7 | binds | B7
8 | binds | B8
9 | binds | B9
10 | binds | B10
11 | binds | B11
12 | binds | B12
13 | binds | B13
14 | binds | B14
15 | binds | B15
16 | binds | B16
17 | binds | B17
18 | binds | B18
19 | binds | B19
20 | binds | B20
21 | binds | B21
22 | binds | B22
23 | binds | B23

What follows are binders tested against T2, Human PTK7 Protein, His Tag, Acro … (assay: BLI (Octet), antibody on anti-human Fc sensor, 50 nM PTK7, dissociation at pH 7.4 or 5.4; 2 = substantially similar binding relative to parent).

Row | binding result | Binder
24 | binds | B24
25 | binds | B25
26 | binds | B26
27 | binds | B27
28 | binds | B28
29 | binds | B29
30 | binds | B30
31 | binds | B31
32 | binds | B32
33 | binds | B33
34 | binds | B34
35 | binds | B35
36 | binds | B36
37 | binds | B37
38 | binds | B38
39 | binds | B39
